Test results as given in patent US20250320468A1, “New Microbial Diamine Oxidase Derived from Yarrowia Lipolytica for the Degradation of Biogenic Amines” (UNIVERSITÄT HOHENHEIM, priority 2021, published 2025).
Several values for one entry are separate records, joined by “and”; a condition that tells them apart may be missing. Identical values can stand only once.

How the values were obtained:
[1] = substrate: NCCc1c[nH]cn1; test: purified protein, by the assay type
[2] = Stability of DAO-1 in simulated intestinal fluid (SIF) with and without food matrices; format: in vitro ADME
Description: The stability of DAO-1 was tested in a simulated intestinal fluid (SIF) with and without the addition of simulated food matrices. Therefore, pancreatin-containing SIF was prepared as described in the United States Pharmacopeia (USP42). Different food-matrix stock solutions (4× concentrated) were prepared as follows: 200 g/L bovine serum albumin (BSA) and 100 g/L sucrose (=food-matrix 1), 100 g/L BSA, 100 g/L whey protein isolate (WPI) and 200 g/L sucrose (=food-matrix 2) and BSA, WPI, sodium-caseinate each at 66.68 g/L and 200 g/L sucrose (=food-matrix 3). The pH of each stock solution was adjusted to 6.8 with 1 M NaOH. The freshly prepared 2× concentrated SIF, the food-matrix stock solutions as well as DAO-1 (desalted against H2Odd using PD MidiTrap G-25 columns; GE Healthcare, Chicago, USA) were individually incubated for 5 min in a thermoshaker at 37° C. Subsequently, 500 μL of 2× concentrated SIF, 250 μL of DAO-1 and 250 μL of the food-matrix stock solutions were combined and incubated at 37° C., 500 rpm in a thermoshaker. In order to test the stability of DAO-1 without the presence of stabilizing compounds, H2Odd was added instead of the food-matrix stock solution. Immediately after combining the solutions, a sample of 100 μL was taken and used for the DAO-1 activity determination using the DA-67 assay.

[3] = DAO activity determination, colorimetric DA-67 enzyme assay (specific / total DAO activity); format: biochemical
Description: The DAO activity was determined using the colorimetric DA-67 enzyme assay, as known in the art.

[4] = Substrate selectivity of DAO-1 (DA-67 assay), tyramine; format: biochemical; conditions: 100% = 10 mM histamine
Description: (§1) The amino acids L-tryptophan, L-lysine, L-histidine, and L-arginine were also tested.

[5] = Michaelis-Menten kinetics of DAO-1 in PIPES buffer; format: biochemical; conditions: read-out: Km for histamine; PIPES buffer 25 mM pH 7.2, 37° C
Description: Kinetic investigations were done within the initial reaction velocity.

[6] = Substrate selectivity of DAO-1 (DA-67 assay), spermidine; format: biochemical; conditions: 100% = 10 mM histamine
Description: as §1

[7] = Substrate selectivity of DAO-1 (DA-67 assay), tryptamine; format: biochemical; conditions: substrate tryptamine 1 mM; 100% = 10 mM histamine
Description: as §1

[8] = Substrate selectivity of DAO-1 (DA-67 assay), putrescine; format: biochemical; conditions: 100% = 10 mM histamine
Description: as §1

[9] = Temperature and pH profile of DAO-1 (DA-67 assay); format: biochemical
Description: The influence of temperature on the enzyme activity of DAO-1 was tested under standard assay conditions, whereby the incubation temperature was varied between 2° and 47° C. The pH-dependency of the DAO-1 activity was investigated under standard assay conditions at 37° C., whereby different buffer systems (50 mM sodium phosphate buffer, pH 6.2-7.8; 50 mM PIPES, pH 7-7.5; 50 mM Tris-HCl, pH 7.2-8.5) were used. The respective buffer system was calibrated with hydrogen peroxide (0.5 to 10 nmol/mL). Analytically pure histamine was used as a substrate for the temperature and pH profiles.

[10] = Substrate selectivity of DAO-1 (DA-67 assay), amino acids; format: biochemical; conditions: L-tryptophan, L-lysine, L-histidine, L-arginine at 1, 10 and 50 mM
Description: as §1

[11] = Substrate selectivity of DAO-1 (DA-67 assay), histamine; format: biochemical
Description: as §1

[12] = pH-stability of DAO-1 in buffer systems at 37° C; format: physicochemical
Description: Consequently, DAO-1 was incubated for 5 h at 37° C. and stirred at 400 rpm in the following buffer systems: 20 mM MES (pH 5.5), 20 mM sodium phosphate buffer (pH 6.2, 7.0, 7.2, 7.8, 8.0), 20 mM PIPES (pH 7.0, 7.2, 7.5) and 20 mM Tris-HCl (pH 6.8, 7.5, 8.2). Afterwards, the residual enzyme activity of DAO-1 was determined under standard assay conditions and compared to the DAO-1 activity applied initially.

[13] = Substrate selectivity of DAO-1 (DA-67 assay), cadaverine; format: biochemical; conditions: 100% = 10 mM histamine
Description: as §1

[14] = Substrate selectivity of DAO-1 (DA-67 assay), agmatine; format: biochemical; conditions: 100% = 10 mM histamine
Description: as §1

[15] = Histamine bioconversion with DAO-1 in PIPES buffer with simulated food matrix (RP-HPLC); format: biochemical; conditions: for histamine concentration after bioconversion: 0.1 nkat/mL DAO-1, 5 h
Description: An amount of 5 g/L BSA and 25 g/L sucrose were added to the approach to simulate a food matrix. Additionally, catalase was added (30 nkat/mL) to remove the hydrogen peroxide. The experiment was started by the addition of 0.1 nkat/mL DAO-1 activity.

[16] = other: apparent, histamine 0.5-50 mM, PIPES buffer (25 mM; pH 7.2), 37° C., pH 7.2
[17] = bioreactor cultivation, crude extract

B1: Yarrowia lipolytica PO1f diamine oxidase-1 (DAO-1), wild type, SEQ ID NO: 1 (Yarrowia lipolytica CLIB122) (protein)
chain: MTPHPFDQLSVQEMESVVRVVKSNHSGKSLHLKSIGTEEPPKALMAPFLAAKRAGKNPVPPPRIAHVIYYVLEDKLVNQCWVDVPSAKVVKSEVLKKGIHPPIDPWEANEAFEAAFDHPLVKDAIKKCGVEHLIDNLTIDGWMYGCDSEIDMPRYLQMLVYCRDPKTNHQDSNMYAFPVPFVPVYDVLEKKLVRVDYCATGGDDDDAAVEGVGNYDTRPEGKNCIEHCVTNDYLPELQDKMRTDLKPYNVLQPEGPSYHIDSDGYINWQKWHFKVGFTPREGLVIHDVHYDGRSTFYRLSMSEMAVPYADPRPPLHRKMAFDFGDCGGGKCANELTLGCDCLGTIRYFDGNVCDPEGNVFTRKNVICMHEQDDGIGWKHTNYRTDVVAITRRRILVLQTILTVGNYEYIFAWHFDQSAGIQLEIRATGIVSTQLIDAGKKSKFGTIVSPGVMAASHQHIFNVRMDPAIDGHQNTVVVNDTVALPWDAKNPHGIAFENTKTPIEKSCYLDSDIQKNRYLKICNENKINPISGNPVGYKIGGLATAMLYAQPGSVSRNRAAFATHHYWVTKYKDQELFAGGVWTNQSANEVGGVQDAVARNENVRNDDVVLWHSFGLTHHPRVEDFPVMPCEIMKIHLSPNDFFTGNPSVDVPKSNQTFNRSVEVKDCRSCKI
- Km [1, 16]: 2.3 ± 0.2 mM
- Vmax [1, 16]: 9.09±0.37 nkat/mg
- Km ([1]; other: hydrolyzed food-matrix SIF 3 (pancreatin, 90 min at 37° C.), pH 6.8, histamine 1.56-50 mM, pH 6.8): 4.2 ± 0.5 mM
- half-life period ([2]; food-matrix SIF 1 (50 g/L BSA, 25 g/L sucrose), 37° C): around 15 min
- half-life period ([2]; food-matrix SIF 2 (25 g/L BSA, 25 g/L WPI, 50 g/L sucrose), 37° C): around 30 min
- initially applied DAO-1 activity available over 90 min ([2]; food-matrix SIF 3, 37° C): around 43%
- residual DAO-1 activity ([2]; food-matrix SIF 3, 90 min, 37° C): 8±0.1%
- half-life period ([2]; pure SIF (pancreatin), 37° C): less than 5 min
- increase of specific DAO-1 activity compared to the recent work ([3]; 5 L scale purified preparation): 3 fold
- specific DAO-1 activity ([3]; 5 L scale, stirred media mill, ammonium sulfate precipitation and HIC): 15 μkat/gProtein
- specific DAO-1 activity of crude extract relative to partially purified porcine DAO ([3]; 1301 vs 81 nkat/gProtein): around 16 times
- specific DAO-1 activity ([3]; DAO-1 produced in Komagataella phaffii, fed-batch bioreactor): 2500 nkat/gProtein
- specific DAO-1 activity relative to specific DAO activity obtained from porcine kidney ([3]; K. phaffii DAO-1 after assumed 7.2-fold purification): more than 200 fold
- specific DAO-1 activity ([3]; after (NH4)2SO4 precipitation and hydrophobic interaction chromatography): 4738±31 nkat/gProtein
- specific DAO-1 activity ([3]; after cell disruption (high-pressure homogenizer) of 10 g wet yeast biomass, before purification): 660±28 nkat/gProtein
- increase in specific DAO activity compared with extracted and purified DAO from porcine kidney ([3]; after chromatographic purification): ~60 fold
- increase in specific DAO activity compared with DAO extraction from porcine kidney [3, 17]: 145 fold
- increase in specific DAO activity compared with native DAO-1 production in Y. lipolytica PO1f [3, 17]: 93 fold
- specific DAO-1 activity ([3]; crude extract, bioreactor cultivation of Y. lipolytica PO1f_axp_dao-1, final (96 h)): 1301±54.2 nkat/gProtein
- DAO-1 activity [%] ([4]; substrate tyramine 1 mM): 303.9 ± 4.4%
- DAO-1 activity [%] ([4]; substrate tyramine 10 mM): 246.8 ± 3.6%
- DAO-1 activity [%] ([4]; substrate tyramine 50 mM): 66.4 ± 1.0%
- Km [5]: 2.3 mM
- DAO-1 activity [%] ([6]; substrate spermidine 1 mM): 2.1 ± 1.6%
- DAO-1 activity [%] ([6]; substrate spermidine 10 mM): 3.8 ± 0.9%
- DAO-1 activity [%] ([6]; substrate spermidine 50 mM): 2.1 ± 1.3%
- DAO-1 activity [%] [7]: 166.1 ± 0.8%
- DAO-1 activity [%] ([8]; substrate putrescine 1 mM): 29.8 ± 0.4%
- DAO-1 activity [%] ([8]; substrate putrescine 10 mM): 92.9 ± 1.4%
- DAO-1 activity [%] ([8]; substrate putrescine 50 mM): 77.9 ± 1.1%
- relative DAO-1 activity ([9]; 42° C, relative to maximum at 40° C): 76±1%
- relative DAO-1 activity ([9]; 45° C, relative to maximum at 40° C): 31.7±1%
- DAO-1 activity compared to the maximal activity in Tris-HCl at pH 7.2 ([9]; PIPES buffer): 92.2±3.9%
- temperature of maximal DAO-1 activity ([9]; PIPES buffer 25 mM pH 7.2, histamine substrate): 40 °C
- pH of maximal DAO activity ([9]; Tris-HCl buffer (50 mM), 37° C, histamine substrate): 7.2
- Maximal DAO-1 activity (100%) ([9]; pH/buffer profile at 37° C (FIG. 8)): 1.84±0.03 nkat/mL
- Maximal DAO-1 activity (100%) ([9]; temperature profile, PIPES 25 mM pH 7.2 (FIG. 7)): 1.88±0.01 nkat/mL
- relative DAO-1 activity ([9]; temperature range between 3° and 42° C): greater than 50%
- DAO-1 activity towards amino acids [10]: did not show any activity
- DAO-1 activity [%] ([11]; substrate histamine 1 mM, 100% = 10 mM histamine): 45.1 ± 0.7%
- DAO-1 activity [%] ([11]; substrate histamine 10 mM, reference 100%): 100 ± 1.5%
- DAO-1 activity [%] ([11]; substrate histamine 50 mM, 100% = 10 mM histamine): 74.4 ± 1.1%
- residual DAO-1 activity ([12]; 37° C, 5 h, pH range from 6.2 to 7.5): more than 60%
- residual DAO-1 activity ([12]; 37° C, 24 h): 53.7±1.2%
- residual DAO-1 activity ([12]; PIPES buffer (20 mM) pH 7.0, 37° C, 5 h): 89.5±0.8%
- DAO-1 activity [%] ([13]; substrate cadaverine 1 mM): 29.6 ± 0.4%
- DAO-1 activity [%] ([13]; substrate cadaverine 10 mM): 87.3 ± 1.3%
- DAO-1 activity [%] ([13]; substrate cadaverine 50 mM): 64.5 ± 1.0%
- DAO-1 activity [%] ([14]; substrate agmatine 1 mM): 31 ± 1.1%
- DAO-1 activity [%] ([14]; substrate agmatine 10 mM): 30.6 ± 2.7%
- DAO-1 activity [%] ([14]; substrate agmatine 50 mM): 7.4 ± 2.3%
- residual activity of DAO-1 after bioconversion ([15]; after 5 h bioconversion at 37° C, determined by RP-HPLC): 57.4±1.3%
- histamine concentration at start of stagnation ([15]; around 4 h): 43.5±0.76 mg/L and 0.39±0.01 mM
- histamine concentration after bioconversion ([15]; initial 1.35 mM, 37° C): 0.34 ± 0.01 mM
- histamine concentration after bioconversion ([15]; initial 150 mg/L, 37° C): 37.4±0.65 mg/L and 37.4±+0.65 mg/L
- remaining histamine relative to initial (100%) ([15]; initial 150 mg/L, 5 hours, 37° C): 25±1.7%
